Source: patent publication US20130136748A1 (Ablynx, published 2013)
Where two headings read alike, the source gives them in different places.

What was measured:
hHER3 full length [1] = target: T1, hHER3 full length (human, UniProt P21860 20-1342); assay: cell-based or functional assay
[2] = target: T2, human HER3-Fc (R&D Systems, 348-RB) (human, UniProt P21860 20-643); assay: HRG competition alphascreen
T2 construct: Bought; also called hHER3-Fc; Fc-HER3; Fc part of the bought chimera not given, not described

human HER1 [3] = target: T3, human HER1 (human, UniProt P00533 25-1210); assay: FACS, CHO-HER1
T3 construct: also called EGFR; ErbB1

human HER2 [4] = target: T4, human HER2 (human, UniProt P04626 23-1255); assay: FACS, CHO-HER2
T4 construct: also called hHER2

human HER4 [5] = target: T5, human HER4 (human, UniProt Q15303 26-1308); assay: FACS, CHO-HER4
human HER1 [6] = target: T3, human HER1; assay: FACS CHO-HER1, 222 nM
human HER1 [7] = target: T3, human HER1; assay: FACS CHO-HER1, 667 nM
human HER2 [8] = target: T4, human HER2; assay: FACS CHO-HER2, 222 nM
human HER2 [9] = target: T4, human HER2; assay: FACS CHO-HER2, 667 nM
human HER4 [10] = target: T5, human HER4; assay: FACS CHO-HER4, 222 nM
human HER4 [11] = target: T5, human HER4; assay: FACS CHO-HER4, 667 nM
human HER1 [12] = target: T3, human HER1; assay: FACS CHO-HER1, 2000 nM
human HER2 [13] = target: T4, human HER2; assay: FACS CHO-HER2, 2000 nM
human HER4 [14] = target: T5, human HER4; assay: FACS CHO-HER4, 2000 nM
hHER3 full length [15] = target: T1, hHER3 full length; assay: cell-based or functional assay; remark: listed apart in the source
hHER3 full length [16] = target: T1, hHER3 full length; assay: cell-based or functional assay; remark: listed apart in the source
[17] = target: T6, hHER3 ECD (human HER3 extracellular domain) (human, UniProt P21860 20-643); assay: ELISA, coated hHER3-ECD
T6 construct: also called recombinant HER3-ECD

[18] = target: T7, cHER3ECD (Maccaca fascicularis HER3 extracellular domain) (Macaca fascicularis, UniProt P21860 20-643 (human entry)); assay: ELISA, coated cHER3-ECD
T7 construct: also called cyno HER3ECD; cyno HER3-ECD
T7 chain: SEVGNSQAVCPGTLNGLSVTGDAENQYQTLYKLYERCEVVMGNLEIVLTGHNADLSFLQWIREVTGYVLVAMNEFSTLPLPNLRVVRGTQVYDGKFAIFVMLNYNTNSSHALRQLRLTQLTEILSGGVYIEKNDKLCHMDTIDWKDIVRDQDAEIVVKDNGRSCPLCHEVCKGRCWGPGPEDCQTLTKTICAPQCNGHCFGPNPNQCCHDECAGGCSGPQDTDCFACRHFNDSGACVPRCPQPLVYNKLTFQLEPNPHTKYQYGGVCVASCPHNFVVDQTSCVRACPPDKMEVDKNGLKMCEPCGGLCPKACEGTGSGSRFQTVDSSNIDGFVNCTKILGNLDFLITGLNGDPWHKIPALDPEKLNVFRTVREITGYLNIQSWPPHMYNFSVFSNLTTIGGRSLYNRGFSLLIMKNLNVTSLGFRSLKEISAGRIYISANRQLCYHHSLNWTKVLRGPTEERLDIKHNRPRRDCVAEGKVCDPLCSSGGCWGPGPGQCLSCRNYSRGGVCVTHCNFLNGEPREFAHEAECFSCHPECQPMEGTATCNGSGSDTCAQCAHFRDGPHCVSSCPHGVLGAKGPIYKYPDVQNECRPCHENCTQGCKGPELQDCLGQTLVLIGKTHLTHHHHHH

[19] = target: T8, Chimeric chicken Her3-human domain 1 (AA1-206 human, AA207-642 chicken) (chicken/human chimera); assay: FACS, HEK293 with chimeric HER3
T8 construct: Transmembrane and extracellular regions, on HEK293 cells
T8 chain: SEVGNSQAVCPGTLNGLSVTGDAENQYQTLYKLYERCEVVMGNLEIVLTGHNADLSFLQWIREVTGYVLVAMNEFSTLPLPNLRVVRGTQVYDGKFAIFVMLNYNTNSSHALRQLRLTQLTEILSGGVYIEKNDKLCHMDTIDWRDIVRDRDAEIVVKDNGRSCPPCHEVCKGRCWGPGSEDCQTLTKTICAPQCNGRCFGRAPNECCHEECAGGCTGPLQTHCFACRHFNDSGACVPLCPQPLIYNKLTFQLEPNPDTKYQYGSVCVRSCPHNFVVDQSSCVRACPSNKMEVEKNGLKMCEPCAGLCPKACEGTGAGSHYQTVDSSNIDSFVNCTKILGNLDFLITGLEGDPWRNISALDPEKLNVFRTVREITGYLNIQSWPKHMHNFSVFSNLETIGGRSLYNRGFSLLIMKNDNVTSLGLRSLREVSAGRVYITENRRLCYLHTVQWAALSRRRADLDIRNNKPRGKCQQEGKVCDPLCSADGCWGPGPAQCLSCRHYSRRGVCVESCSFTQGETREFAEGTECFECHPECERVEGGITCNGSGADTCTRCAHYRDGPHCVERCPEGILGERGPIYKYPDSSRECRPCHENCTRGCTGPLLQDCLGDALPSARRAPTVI

[20] = target: T2, human HER3-Fc (R&D Systems, 348-RB); assay: SPR, HER3-Fc captured by anti-Fc
hHER3 full length [21] = target: T1, hHER3 full length; assay: FACS, 400 nM, competitor 04C07-biotin
hHER3 full length [22] = target: T1, hHER3 full length; assay: FACS, 400 nM, competitor 04F10-biotin
hHER3 full length [23] = target: T1, hHER3 full length; assay: FACS, 400 nM, competitor 17C08-biotin
hHER3 full length [24] = target: T1, hHER3 full length; assay: FACS, 400 nM, competitor 18E08-biotin
hHER3 full length [25] = target: T1, hHER3 full length; assay: FACS, 400 nM, competitor 21B02-biotin
hHER3 full length [26] = target: T1, hHER3 full length; assay: FACS, 400 nM, competitor 23F05-biotin
hHER3 full length [27] = target: T1, hHER3 full length; assay: FACS competition with HRG1-β1-EGF, CHO-HER3
hHER3 full length [28] = target: T1, hHER3 full length; assay: cell-based or functional assay; remark: listed apart in the source
[29] = target: T6, hHER3 ECD (human HER3 extracellular …); assay: SPR off rate on HER3-ECD, periplasmic extract
[30] = target: T2, human HER3-Fc (R&D Systems, 348-RB); assay: 18G11 competition alphascreen, periplasmic extract
[31] = target: T6, hHER3 ECD (human HER3 extracellular …); assay: SPR off rate on HER3-ECD
[32] = target: T2, human HER3-Fc (R&D Systems, 348-RB); assay: HRG competition alphascreen; remark: listed apart in the source

T5 sequence (Q15303 26-1308 limits assumed): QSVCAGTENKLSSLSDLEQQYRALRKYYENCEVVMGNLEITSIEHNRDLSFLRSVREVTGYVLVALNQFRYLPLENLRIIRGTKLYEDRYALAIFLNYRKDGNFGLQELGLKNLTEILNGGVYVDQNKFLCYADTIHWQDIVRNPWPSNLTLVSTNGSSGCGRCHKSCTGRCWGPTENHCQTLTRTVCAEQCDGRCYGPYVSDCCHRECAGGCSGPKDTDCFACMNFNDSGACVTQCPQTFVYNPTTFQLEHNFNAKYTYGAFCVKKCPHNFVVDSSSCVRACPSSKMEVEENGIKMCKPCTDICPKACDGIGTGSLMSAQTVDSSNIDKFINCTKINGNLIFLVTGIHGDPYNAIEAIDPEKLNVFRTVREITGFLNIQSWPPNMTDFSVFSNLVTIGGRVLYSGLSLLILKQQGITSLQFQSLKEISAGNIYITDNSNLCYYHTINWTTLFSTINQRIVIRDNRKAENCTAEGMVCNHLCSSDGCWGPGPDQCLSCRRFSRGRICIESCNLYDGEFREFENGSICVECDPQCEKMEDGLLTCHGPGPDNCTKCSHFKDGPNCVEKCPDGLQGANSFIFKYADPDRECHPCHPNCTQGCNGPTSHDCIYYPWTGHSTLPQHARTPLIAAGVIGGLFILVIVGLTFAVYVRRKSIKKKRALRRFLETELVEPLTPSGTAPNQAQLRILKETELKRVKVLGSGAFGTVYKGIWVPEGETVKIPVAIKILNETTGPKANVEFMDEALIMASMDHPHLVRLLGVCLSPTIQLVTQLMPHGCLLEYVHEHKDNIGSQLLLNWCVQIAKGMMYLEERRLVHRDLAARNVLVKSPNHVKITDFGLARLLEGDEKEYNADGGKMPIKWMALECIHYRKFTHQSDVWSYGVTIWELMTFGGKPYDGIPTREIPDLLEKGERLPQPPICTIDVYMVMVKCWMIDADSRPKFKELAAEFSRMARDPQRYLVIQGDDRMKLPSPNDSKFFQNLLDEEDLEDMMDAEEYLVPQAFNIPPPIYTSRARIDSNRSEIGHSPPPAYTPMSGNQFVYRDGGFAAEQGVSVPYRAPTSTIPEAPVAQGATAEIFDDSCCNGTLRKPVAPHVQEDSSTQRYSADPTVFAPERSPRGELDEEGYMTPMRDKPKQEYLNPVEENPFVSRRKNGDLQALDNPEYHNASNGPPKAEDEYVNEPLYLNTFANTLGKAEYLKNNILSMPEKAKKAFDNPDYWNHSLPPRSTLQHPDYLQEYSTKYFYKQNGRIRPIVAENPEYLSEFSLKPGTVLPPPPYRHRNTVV

B1: HER3MS00129 (VHH)
VHH: EVQLVESGGGLVQPGGSLRLSCAASGFTFSSYPMSWVRQAPGKGPEWVSTVSPGGITTSYADSVKGRFTISRDNSKNTLYLQMNSLRPEDTAVYYCLRDLGNRGQGTLVTVSS
notes: 04C07 basic + A46E + N101G
- IC50 pHER3, HRG1-β1 stimulated MCF7 (hHER3 full length [1]): 1.21e-07 M
- IC50 [2]: 5.1 nM

B2: HER3MS00130 (VHH)
VHH: EVQLVESGGGLVQPGGSLRLSCAASGFTFSSYPMSWVRQAPGKGPAWVSTVSPGGITTSYADSVKGRFTISRDNSKNTLYLQMNSLRPEDTAVYYCLRDLGNRGQGTLVTVSS
notes: 04C07 basic + N101G
- IC50 pHER3, HRG1-β1 stimulated MCF7 (hHER3 full length [1]): 9.38e-09 M
- IC50 [2]: 0.88 nM

B3: HER3MS00131 (VHH)
VHH: EVQLVESGGGLVQPGGSLRLSCAASGFTFSSYPMSWVRQAPGKGPEWVSTVSPGGITTSYADSVKGRFTISRDNSKNTLYLQMNSLRPEDTAVYYCLRDLSNRGQGTLVTVSS
notes: 04C07 basic + A46E + N101S
- IC50 pHER3, HRG1-β1 stimulated MCF7 (hHER3 full length [1]): 2.26e-07 M
- IC50 [2]: 5.8 nM

B4: HER3MS00132 (VHH)
VHH: EVQLVESGGGLVQPGGSLRLSCAASGFTFSSYPMSWVRQAPGKGPAWVSTVSPGGITTSYADSVKGRFTISRDNSKNTLYLQMNSLRPEDTAVYYCLRDLSNRGQGTLVTVSS
notes: 04C07 basic + N101S
- IC50 pHER3, HRG1-β1 stimulated MCF7 (hHER3 full length [1]): 1.31e-08 M
- IC50 [2]: 1 nM

B5: 18F05 (VHH)
VHH: EVQLVESGGGLVQPGGSLRLSCVASGFTFSSYWMYWVRQAPGKGVEWVSAISPGGVERYTDSVKGRFTISRDNAKNTLYLQMNSLKSEDTAMYYCARLTSFATPESQGTQVTVSS
notes: also called 18F5
- binding result (human HER1 [3]): no binding (tested: 2000 nM)
- binding result (human HER2 [4]): no binding (tested: 2000 nM)
- binding result (human HER4 [5]): no binding (tested: 2000 nM)
- MCF (human HER1 [6]): 154
- MCF (human HER1 [7]): 60
- MCF (human HER2 [8]): 436
- MCF (human HER2 [9]): 347
- MCF (human HER4 [10]): 149
- MCF (human HER4 [11]): 149
- MCF (human HER1 [12]): 133
- MCF (human HER2 [13]): 256
- MCF (human HER4 [14]): 120
- IC50, HRG1-β1 induced pHER3, MCF-7 (hHER3 full length [15]): 1.53e-09 M
- IC50, HRG1-β1 induced pHER3, MDA-MB468 (hHER3 full length [15]): 1.8e-08 M
- IC50, HRG1-β1 induced pAkt, MCF-7 (hHER3 full length [16]): 8.04e-09 M
- IC50, HRG1-β1 induced pERK1/2, MCF-7 (hHER3 full length [16]): 8.98e-08 M
- EC50 [17]: 0.29 nM
- EC50 [18]: 0.29 nM
- binding result [19]: binds
- Kd [20]: 0.24 nM
- kon [20]: 427000 M⁻¹ s⁻¹
- % competition (hHER3 full length [21]): 100%
- % competition (hHER3 full length [22]): 15%
- % competition (hHER3 full length [23]): 0%
- % competition (hHER3 full length [24]): 0%
- % competition (hHER3 full length [25]): 0%
- % competition (hHER3 full length [26]): 0%
- IC50 (hHER3 full length [27]): 20.1 nM

B6: HER3MS00074 (VHH)
VHH: EVQLVESGGGLVQPGGSLRLSCAASGTLFKINAMGWYRQAPGKRRELVALITSSDTTDYAESVEGRFTISRDNTWNAVYLQMNSLKPEDTAVYYCHSDHYSMGVPEKRVIEYGQGTLVTVSS
notes: 18G11 M102E
- IC50 pHER3 blocking, HRG stimulated MCF7 (hHER3 full length [28]): 6.3e-08 M
- koff [29]: 0.00049 s⁻¹
- % inhibition [30]: 82.7%

B7: HER3MS00076 (VHH)
VHH: EVQLVESGGGLVQPGGSLRLSCAASGSIGGLNAMAWYRQAPGKERELVAGIFGVGSTRYADSVKGRFTISRDISKNTVFLQMNSLRSEDTAVYYCRMSSVTRGSSDYWGQGTLVTVSS
notes: 17B05 + A74S, N83R, Q108L; also called HER3MS0076; 17B05 basic variant
- koff [31]: 0.00017 s⁻¹
- IC50 [32]: 0.788 nM

B8: HER3MS00080 (VHH)
VHH: EVQLVESGGGLVQPGGSLRLSCAASGSIGGLNAMAWYRQAPGKERELVAGIFGVGSTRYADSVKGRFTISRDNSKNTVYLQMNSLRSEDTAVYYCRMSSVTRGSSDYWGQGTLVTVSS
notes: 17B05 basic + I73N + F79Y; also called HER3MS0080
- koff [31]: 0.00018 s⁻¹
- IC50 [32]: 0.731 nM

B9: HER3MS00083 (VHH)
VHH: EVQLVESGGGLVQPGGSLRLSCAASGSIGGLNAMAWYRQAPGKERELVAGIFGVGSTRYADSVKGRFTISRDNSKNTVYLQMNSLRSEDTAVYYCAMSSVTRGSSDYWGQGTLVTVSS
notes: also called HER3MS0083
- koff [31]: 0.00084 s⁻¹
- IC50 [32]: 4.95 nM

B10: HER3MS00084 (VHH)
VHH: EVQLVESGGGLVQPGGSLRLSCAASGSIGGLNAMAWYRQAPGKERELVAGIFGVGSTRYADSVKGRFTISRDISKNTVFLQMNSLRPEDTAVYYCRMSSVTRGSSDYWGQGTLVTVSS
notes: 17B05 basic + S84P; also called HER3MS0084
- koff [31]: 0.00018 s⁻¹
- IC50 [32]: 0.94 nM

B11: HER3MS00085 (VHH)
VHH: EVQLVESGGGLVQPGGSLRLSCAASGSIGGLNAMAWYRQAPGKERELVAGIFGVGSTRYADSVKGRFTISRDISKNTVFLQMNSLRAEDTAVYYCRMSSVTRGSSDYWGQGTLVTVSS
notes: 17B05 basic + S84A; also called HER3MS0085
- koff [31]: 0.00019 s⁻¹
- IC50 [32]: 0.76 to 0.94 nM
